Results as given in article PMC7057392 (ACS chemical neuroscience, 2020).

B1: PDZ domain of PICK1 (first 126 amino acids of PICK1) (domain or fragment, UniProt Q9NRD5 1-126, looked up)
chain: MFADLDYDIEEDKLGIPTVPGKVTLQKDAQNLIGISIGGGAQYCPCLYIVQVFDNTPAALDGTVAAGDEITGVNGRSIKGKTKVEVAKMIQEVKGEVTIHYNKLQADPKQGMSLDIVLKKVKHRLV

Assays:
[1] = molecular target: Cys-min α7 nAChR (human α7 nAChR containing only the C128-C142 and C190-C191 cysteines) (human) (UniProt P36544); test: SPR
[2] = molecular target: wild-type human α7 nicotinic acetylcholine receptor (human, UniProt P36544 23-502); test: SPR

Row | Molecule | Kd [1] [µM] | Kd [2] [µM]
1 | PDZ domain of PICK1 (first 126 amino acids of PICK1) (from UniProt Q9NRD5 1-126) (domain or fragment) | 2.6 | –
2 | B1 | – | 2.5 ± 0.4
